Data on one molecule can be found in publication PMC3515335, “CDK2 Regulates HIV-1 Transcription by Phosphorylation of CDK9 on Serine 90” (Retrovirology, 2012).

The experiment addresses T1, Flag-tagged CDK9 S90A (human, UniProt P50750 1-372, S90A).
T1 construct: also called Flag-CDK9 S90A
In words: co-IP; Flag-CDK9 (WT or S90A) precipitated with anti-Flag antibodies from lysates of 293T cells co-transfected with cyclin T1, 48 hrs post-transfection; whole cell lysis buffer (50 mM Tris-HCl pH 7.5, 0.5 M NaCl, 1% NP-40, 0.1% SDS); IP 2 hrs at 4°C in TNN buffer (50 mM Tris-HCl pH 7.5, 150 mM NaCl, 1% NP-40); immunoblot for Hexim1, CDK9 and cyclin T1. Conditions: partners not purified. A general note: A western blot detects proteins with antibodies after separation by electrophoresis.

T1 sequence (P50750 whole entry S90A): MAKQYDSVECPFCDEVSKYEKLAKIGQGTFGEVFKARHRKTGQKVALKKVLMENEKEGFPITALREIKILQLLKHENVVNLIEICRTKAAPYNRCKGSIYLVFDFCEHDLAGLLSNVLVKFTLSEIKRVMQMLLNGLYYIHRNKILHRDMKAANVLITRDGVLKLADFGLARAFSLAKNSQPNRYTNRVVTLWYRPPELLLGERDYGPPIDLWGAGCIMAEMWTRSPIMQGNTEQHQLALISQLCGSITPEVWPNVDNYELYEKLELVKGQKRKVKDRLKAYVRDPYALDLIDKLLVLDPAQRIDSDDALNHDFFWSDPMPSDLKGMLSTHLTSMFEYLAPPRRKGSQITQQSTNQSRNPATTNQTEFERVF

B1: HEXIM1 (natural protein, human (endogenous in 293T), UniProt O94992 1-359, looked up)
chain: MAEPFLSEYQHQPQTSNCTGAAAVQEELNPERPPGAEERVPEEDSRWQSRAFPQLGGRPGPEGEGSLESQPPPLQTQACPESSCLREGEKGQNGDDSSAGGDFPPPAEVEPTPEAELLAQPCHDSEASKLGAPAAGGEEEWGQQQRQLGKKKHRRRPSKKKRHWKPYYKLTWEEKKKFDEKQSLRASRIRAEMFAKGQPVAPYNTTQFLMDDHDQEEPDLKTGLYSKRAAAKSDDTSDDDFMEEGGEEDGGSDGMGGDGSEFLQRDFSETYERYHTESLQNMSKQELIKEYLELEKCLSRMEDENNRLRLESKRLGGDDARVRELELELDRLRAENLQLLTENELHRQQERAPLSKFGD
notes: source: endogenous, 293T lysate
B1: the “HEXIM1 co-precipitated, relative to WT CDK9” value is roughly 50 % less.
